Test [1] concerns the target human melanocortin 4 receptor (human, UniProt P32245 1-332). The test can be described thus: cell-based or functional assay.
Test [2] has as its target T1, human melanocortin 1 receptor (human, UniProt Q01726 1-317). The test can be described thus: cell-based or functional assay.
The target of test [3] is T2, human melanocortin 3 receptor (human, UniProt P41968 1-323). The test can be described thus: cell-based or functional assay.
Test [4] deals with human melanocortin 5 receptor (human, UniProt P33032 1-325). The test is described as follows: cell-based or functional assay.
Test [5] addresses T1, human melanocortin 1 receptor. The test can be described thus: competition with 125I-NDP-α-MSH, cells expressing hMC1R.
In test [6] the target is T2, human melanocortin 3 receptor. The test can be described thus: competition with 125I-NDP-α-MSH, cells expressing hMC3R.

T1 sequence (Q01726 whole entry): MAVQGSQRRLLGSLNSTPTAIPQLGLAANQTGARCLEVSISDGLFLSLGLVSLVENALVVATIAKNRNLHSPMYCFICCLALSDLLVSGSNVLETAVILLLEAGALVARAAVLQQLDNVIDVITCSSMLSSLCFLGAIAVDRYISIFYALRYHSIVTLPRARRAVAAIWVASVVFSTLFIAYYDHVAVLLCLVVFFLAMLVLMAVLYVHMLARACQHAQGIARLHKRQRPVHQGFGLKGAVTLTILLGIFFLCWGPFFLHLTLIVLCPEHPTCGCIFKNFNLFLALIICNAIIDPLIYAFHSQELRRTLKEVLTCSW
T2 sequence (P41968 whole entry): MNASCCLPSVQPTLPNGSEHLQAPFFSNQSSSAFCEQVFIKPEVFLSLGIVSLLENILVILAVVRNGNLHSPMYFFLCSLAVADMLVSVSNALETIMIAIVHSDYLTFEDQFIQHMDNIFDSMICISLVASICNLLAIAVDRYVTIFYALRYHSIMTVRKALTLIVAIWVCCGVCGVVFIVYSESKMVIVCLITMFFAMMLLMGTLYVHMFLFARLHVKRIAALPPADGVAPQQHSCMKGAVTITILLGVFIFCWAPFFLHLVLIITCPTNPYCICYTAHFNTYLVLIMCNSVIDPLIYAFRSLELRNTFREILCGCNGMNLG
human melanocortin 5 receptor, sequence (P33032 whole entry): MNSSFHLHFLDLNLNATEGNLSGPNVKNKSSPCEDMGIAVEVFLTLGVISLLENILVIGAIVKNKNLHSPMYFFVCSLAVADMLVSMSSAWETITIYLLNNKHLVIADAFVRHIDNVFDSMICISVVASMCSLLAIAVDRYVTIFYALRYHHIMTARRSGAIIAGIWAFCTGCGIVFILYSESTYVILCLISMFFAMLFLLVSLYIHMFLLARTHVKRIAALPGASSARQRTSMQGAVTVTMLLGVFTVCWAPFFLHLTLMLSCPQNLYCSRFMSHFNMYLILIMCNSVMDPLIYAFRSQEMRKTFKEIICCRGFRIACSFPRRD
human melanocortin 4 receptor, sequence (P32245 whole entry): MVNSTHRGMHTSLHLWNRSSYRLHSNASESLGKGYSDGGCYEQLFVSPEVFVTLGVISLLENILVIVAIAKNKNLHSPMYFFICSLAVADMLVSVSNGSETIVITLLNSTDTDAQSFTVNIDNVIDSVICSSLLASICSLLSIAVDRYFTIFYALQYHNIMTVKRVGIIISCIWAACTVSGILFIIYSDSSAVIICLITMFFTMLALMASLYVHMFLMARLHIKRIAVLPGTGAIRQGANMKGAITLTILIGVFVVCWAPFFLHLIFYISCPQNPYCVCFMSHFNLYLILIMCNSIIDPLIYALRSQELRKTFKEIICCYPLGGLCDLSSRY

B1: Ac-Arg-cyclo[Asp-Pip-D-Phe(4-F)-βArg-Trp-Lys]-NH2 (peptide)
peptide: RDXFRWK
modifications: not fully specified; N-terminal acetyl (Ac); C-terminal amide (NH2); cyclized through the side chains of Asp2 and Lys7; Pip at 3; D-Phe(4-F) at 4; βArg at 5
notes: Synthetic cyclic peptide; also called compound 5; analogue 5
A word on the IC50: it is the concentration needed to halve the response being measured. B1: the “EC50 (nM), cAMP accumulation” value in test [1] was > 1000 nM; in test [2], 340 nM; in test [3], > 1000 nM; in test [4] it was > 1000 nM. For the same molecule, the results for the Act % in test [2], in test [3] and in test [4] were 100%, 59% and 62%, respectively. Moreover, the concentration for half-maximal inhibition (IC50) in test [5] is 14 nM; in test [6] it was 59 nM.

The values above are taken from US20260049105A1 (ARIZONA BOARD OF REGENTS ON BEHALF OF THE UNIVERSITY OF …, published 2026).
